Consider two substances from US20170247459A1, “COMBINATION THERAPY OF ANTIBODIES AGAINST HUMAN CSF-1R AND USES THEREOF” (HOFFMANN-LA ROCHE INC., priority 2012, published 2017).

Experiment in all cases: cell-based or functional assay
Test [1] addresses human mutant CSF-1R L301S Y969F, full-length, on NIH 3T3 cells (human) (UniProt P07333).
In test [2] the target is human wildtype CSF-1R (wt CSF-1R), full-length, on cells (human) (UniProt P07333).
In test [3] the target is CSF-1R on cynomolgous monocytes (cynomolgous).

Regarding “Anti CSF-1R SC 2-4A5 (Santa Cruz Biotechnology, US) (antibody)”, in test [1], the Mutant CSF-1R IC30 (cell viability, 3D spheroids, CellTiterGlo) was 2.56 µg/mL and the Mutant CSF-1R IC50 (cell viability, 3D spheroids, CellTiterGlo) amounted to 10 µg/mL. In test [2], this substance yielded a wtCSF-1R IC30 (cell viability, 3D spheroids, CellTiterGlo) of 16.6 µg/mL and a wtCSF-1R IC50 (cell viability, 3D spheroids, CellTiterGlo) of 10 µg/mL. In test [3], this substance returned a % inhibition (of survival) = (100%-% survival), cynomolgous monocytes at 5 µg/ml antibody of 69% and a % survival of cynomolgous monocytes at 5 µg/ml antibody (CellTiterGlo) of 31%.
Consider “goat polyclonal anti-CSF-1R antibody ab10676 (abcam)”, for which, in test [1], the Mutant CSF-1R IC30 (cell viability, 3D spheroids, CellTiterGlo) is over 20 µg/mL. The same substance yielded a wtCSF-1R IC30 (cell viability, 3D spheroids, CellTiterGlo) in test [2] of 14.2 µg/mL.
